Source: patent US20040235710A1, “Pre-mixes of glp-1 and basal insulin” (published 2004)
No end group written: not given here.

Target: T1, human GLP-1 receptor (human, UniProt P43220)
Test: cell-based or functional assay

Point of comparison: HVEGTFTSDLSSYLEEQAAKEFIAWLVKGRG [Val^8-Leu^16-Glu^22-GLP-1(7-37)OH], “GLP-1 receptor activation relative to Val^8-GLP-1(7-37)OH” value 4.3 relative potency. Against it:
- HVEGTYTSDVSSYLEGQAAKEFIAWLVKGR-NH2 [Val^8-Tyr^12-GLP-1(7-36)NH2] — lower, 1.1 relative potency
- HVEGTFTSDWSSYLEEQAVKEFIAWLVKGRG [Val^8-Trp^16-Glu^22-Val^25-GLP-1(7-37)OH] — higher, 4.4 relative potency
- HVEGTYTSDVSSYLEEQAAKEFIAWLVKGRG [Val^8-Tyr^12-Glu^22-GLP-1(7-37)OH] — lower, 2.7 relative potency
- HVEGTFTSDVSSYLEGQALKEFIAWLVKGRG [Val^8-Leu^25-GLP-1(7-37)OH] — lower, 0.5 relative potency
- HVEGTFTSDLSSYLEGQAAKEFIAWLVKGRG [Val^8-Leu^16-GLP-1(7-37)OH] — lower, 1.1 relative potency
- HVEGTWTSDVSSYLEEQAAKEFIAWLVKGRG [Val^8-Trp^12-Glu^22-GLP-1(7-37)OH] — lower, 1.7 relative potency
- HGEGTFTSDVSSYLEGQAAKEFIAWLVKGRG [Gly^8-GLP-1(7-37)OH] — lower, 1.7 relative potency
- HVEGTFTSDYSSFLEGQAAKEFIAWLVKGRG [Val^8-Tyr^16-Phe^19-GLP-1(7-37)OH] — lower, 2.8 relative potency
- HVEGTWTSDVSSYLEGQAAKEFIAWLVKGRG [Val^8-Trp^12-GLP-1(7-37)OH] — lower, 1.1 relative potency
- HVEGTYTSDYSSYLEGQAAKEFIAWLVKGRG [Val^8-Tyr^12-Tyr^16-GLP-1(7-37)OH] — lower, 1.5 relative potency

Target: T1, human GLP-1 receptor
Test: cell-based or functional assay
Remark: another data set of the same source

Point of comparison: HVEGTFTSDVSSYLEGQAAKEFIAWLVKERG [Val^8-Glu^35-GLP-1(7-37)OH], “GLP-1 Receptor Activation (relative to GLP-1(7-37)OH)” value 0.15 relative potency. Against it:
- HVEGTFTSDVSSYLEEQAAKEFIAWLVKGR-NH2 [Val^8-Glu^22-GLP-1(7-36)NH2] — higher, 1 relative potency
- HVEGTFTSDVSSYLEGQAAKEFIAWLVKGGP-NH2 [Val^8-Gly^36-Pro^37-GLP-1(7-37)NH2] — higher, 0.53 relative potency
- HVEGTFTSDVSSYLEAQAAKEFIAWLVKGRG [Val^8-Ala^22-GLP-1(7-37)OH] — higher, 0.56 relative potency
- HVEGTFTSDASSYLEGQAAKEFIAWLVKGRG [Val^8-Ala^16-GLP-1(7-37)OH] — lower, 0.112 relative potency
- HVEGTFTSDVSSYLEPQAAKEFIAWLVKGRG [Val^8-Pro^22-GLP-1(7-37)OH] — lower, 0.01 relative potency
- HVEGTFTSDVSSYLEHQAAKEFIAWLVKGRG [Val^8-His^22-GLP-1(7-37)OH] — lower, 0.14 relative potency
- HVEGTFTSDVSSYLEDQAAKEFIAWLVKGRG [Val^8-Asp^22-GLP-1(7-37)OH] — higher, 0.4 relative potency
- HVEGTFTSDVSSYLEKQAAKEFIAWLVKGRG [Val^8-Lys^22-GLP-1(7-37)OH] — higher, 0.58 relative potency
- HVEGTFTSDVSSYLEEQAAKEFIAWLVKGRG [Val^8-Glu^22-GLP-1(7-37)OH] — higher, 1.29 relative potency
- HVEGTFTSDVSSYLESQAAKEFIAWLVKGRG [Val^8-Ser^22-GLP-1(7-37)OH] — higher, 0.5 relative potency
- HVEGTFTSDVSSYLEEKAAKEFIAWLVKGRG [Val^8-Glu^22-Lys^23-GLP-1(7-37)OH] — higher, 1.43 relative potency
- HVEGTFTSDESSYLEGQAAKEFIAWLVKGRG [Val^8-Glu^16-GLP-1(7-37)OH] — lower, 0.047 relative potency
- HVEGTFTSDVSSYKEGQAAKEFIAWLVKGRG [Val^8-Lys^20-GLP-1(7-37)OH] — higher, 0.33 relative potency
- HVEGTFTSDVSSYLEGQAAKEFIAWLVEGRG [Val^8-Glu^34-GLP-1(7-37)OH] — higher, 0.17 relative potency
- HVEGTFTSDVSSYLEGQAAHEFIAWLVKGRG [Val^8-His^26-GLP-1(7-37)OH] — higher, 1.6 relative potency
- HVEGTFTSDVSSYLEGQAAKEFIAWLAKGRG [Val^8-Ala^33-GLP-1(7-37)OH] — lower, 0.1 relative potency
- HVEGTFTSDVSSYLEKQAAKEFIEWLVKGRG [Val^8-Lys^22-Glu^30-GLP-1(7-37)OH] — higher, 0.37 relative potency
- HVEGTFTSDVSSYLEGQAAKEFIAWLVKGEG [Val^8-Glu^36-GLP-1(7-37)OH] — lower, 0.11 relative potency
- HVEGTFTSDVSSYLEGQAAKEFIAWLEKGRG [Val^8-Glu^33-GLP-1(7-37)OH] — lower, 0.039 relative potency
- HVEGTFTSDVSSYLEGQAAKEFIAWLVGKRG [Val^8-Gly^34-Lys^35-GLP-1(7-37)OH] — higher, 0.34 relative potency
- HVEGTFTSDVSSYLEGQAAKEFIAWLVKPRG [Val^8-Pro^35-GLP-1(7-37)OH] — lower, 0.094 relative potency
- HGEGTFTSDVSSYLEGQAAKEFIEWLVKGRG [Gly^8-Glu^30-GLP-1(7-37)OH] — higher, 0.29 relative potency
- HVEGTFTSDVSSYLEGQAAKEFIEWLVKGRG [Val^8-Glu^30-GLP-1(7-37)OH] — higher, 0.29 relative potency
- HVEGTFTSDVSSYLEGQAAKEFIAWLKVGRG [Val^8-Lys^33-Val^34-GLP-1(7-37)OH] — lower, 0.08 relative potency
- HVEGTFTSDVSSYLEGQKAKEFIAWLVKGRG [Val^8-Lys^24-GLP-1(7-37)OH] — lower, 0.02 relative potency
- HVEGTFTSDVSSYLEGQAAKEFISWLVKGRG [Val^8-Ser^30-GLP-1(7-37)OH] — higher, 0.19 relative potency
- HVEGTFTSDVSSYLEGQAAKEFIAWLKNGRG [Val^8-Lys^33-Asn^34-GLP-1(7-37)OH] — lower, 0.09 relative potency
- HVEGTFTSDVSSYLEGQAAEEFIAWLVKGRG [Val^8-Glu^26-GLP-1(7-37)OH] — higher, 1.5 relative potency
- HVEGTFTSDVSSYLEGQAAKHFIAWLVKGRG [Val^8-His^27-GLP-1(7-37)OH] — higher, 0.37 relative potency
- HVEGKFTSDVSSYLEGQAAKEFIAWLVKGRG [Val^8-Lys^11-GLP-1(7-37)OH] — lower, 0.001 relative potency
- HVEGTFTSDVSSYLEGQAAKEFIDWLVKGRG [Val^8-Asp^30-GLP-1(7-37)OH] — the same, 0.15 relative potency
- HGEGHFTSDVSSYLEGQAAKEFIAWLVKGRG [Gly^8-His^11-GLP-1(7-37)OH] — higher, 0.282 relative potency
- HVEGAFTSDVSSYLEGQAAKEFIAWLVKGRG [Val^8-Ala^11-GLP-1(7-37)OH] — lower, 0.021 relative potency
- HVEGTFTSDVSSYLEGQAAKEFIAWLVKGHG [Val^8-His^36-GLP-1(7-37)OH] — higher, 0.22 relative potency
- HVEGTFTSDVSSYLEGQHAKEFIAWLVKGRG [Val^8-His^24-GLP-1(7-37)OH] — lower, 0.007 relative potency
- HAEGTFTSDVSSYLEQQAAKEFIAWLVKGRG [Gln^22-GLP-1(7-37)OH] — higher, 0.42 relative potency
- HVEGTFTSDVSSYLEGKAAKEFIAWLVKGRG [Val^8-Lys^23-GLP-1(7-37)OH] — higher, 0.18 relative potency
- HVEGTFTSDVSSYLEKEAAKEFIAWLVKGRG [Val^8-Lys^22-Glu^23-GLP-1(7-37)OH] — higher, 0.35 relative potency
- HVEGTFTSDLSSYLEGQAAEEFIAWLVKGRG [Val^8-Leu^16-Glu^26-GLP-1(7-37)OH] — higher, 0.23 relative potency
- HVEGTFTSDVSSYLEGQAAKEFIHWLVKGRG [Val^8-His^30-GLP-1(7-37)OH] — higher, 0.19 relative potency
- HVEGTFTSDVSSYLEGQAAKEFIAWLGKGRG [Val^8-Gly^33-GLP-1(7-37)OH] — lower, 0.01 relative potency
- HVEGTFTSDVSSYLEGQAAKEFIAWLVKHRG [Val^8-His^35-GLP-1(7-37)OH] — higher, 0.41 relative potency
- HVEGTFTSDVSSYLEGQAAKEFIAWLVKGRH [Val^8-His^37-GLP-1(7-37)OH] — higher, 0.33 relative potency
- HVEGTFTSDVSSYLEKQAAKEFIAWLVKGR-NH2 [Val^8-Lys^22-GLP-1(7-36)NH2] — higher, 0.53 relative potency
